These results are taken from PMC12098889, “Structural insight into PIF6-mediated red light signal transduction of plant phytochrome B” (Cell Discovery, 2025).

To fix the notation:
B1: phytochrome B (phyB), full length (1‒1172) (receptor, Arabidopsis, UniProt P14713 1-1172, looked up)
chain: MVSGVGGSGGGRGGGRGGEEEPSSSHTPNNRRGGEQAQSSGTKSLRPRSNTESMSKAIQQYTVDARLHAVFEQSGESGKSFDYSQSLKTTTYGSSVPEQQITAYLSRIQRGGYIQPFGCMIAVDESSFRIIGYSENAREMLGIMPQSVPTLEKPEILAMGTDVRSLFTSSSSILLERAFVAREITLLNPVWIHSKNTGKPFYAILHRIDVGVVIDLEPARTEDPALSIAGAVQSQKLAVRAISQLQALPGGDIKLLCDTVVESVRDLTGYDRVMVYKFHEDEHGEVVAESKRDDLEPYIGLHYPATDIPQASRFLFKQNRVRMIVDCNATPVLVVQDDRLTQSMCLVGSTLRAPHGCHSQYMANMGSIASLAMAVIINGNEDDGSNVASGRSSMRLWGLVVCHHTSSRCIPFPLRYACEFLMQAFGLQLNMELQLALQMSEKRVLRTQTLLCDMLLRDSPAGIVTQSPSIMDLVKCDGAAFLYHGKYYPLGVAPSEVQIKDVVEWLLANHADSTGLSTDSLGDAGYPGAAALGDAVCGMAVAYITKRDFLFWFRSHTAKEIKWGGAKHHPEDKDDGQRMHPRSSFQAFLEVVKSRSQPWETAEMDAIHSLQLILRDSFKESEAAMNSKVVDGVVQPCRDMAGEQGIDELGAVAREMVRLIETATVPIFAVDAGGCINGWNAKIAELTGLSVEEAMGKSLVSDLIYKENEATVNKLLSRALRGDEEKNVEVKLKTFSPELQGKAVFVVVNACSSKDYLNNIVGVCFVGQDVTSQKIVMDKFINIQGDYKAIVHSPNPLIPPIFAADENTCCLEWNMAMEKLTGWSRSEVIGKMIVGEVFGSCCMLKGPDALTKFMIVLHNAIGGQDTDKFPFPFFDRNGKFVQALLTANKRVSLEGKVIGAFCFLQIPSPELQQALAVQRRQDTECFTKAKELAYICQVIKNPLSGMRFANSLLEATDLNEDQKQLLETSVSCEKQISRIVGDMDLESIEDGSFVLKREEFFLGSVINAIVSQAMFLLRDRGLQLIRDIPEEIKSIEVFGDQIRIQQLLAEFLLSIIRYAPSQEWVEIHLSQLSKQMADGFAAIRTEFRMACPGEGLPPELVRDMFHSSRWTSPEGLGLSVCRKILKLMNGEVQYIRESERSYFLIILELPVPRKRPLSTASGSGDMMLMMPY
modifications: PΦB chromophore covalently linked to C357
notes: Arabidopsis phytochrome B, residues 1-1172, At2g18790; The same protein is Pr in the dark and Pfr after red light; The purification uses Ni-NTA, but no His tag on phyB is described; also called wild-type phyB; phyB-Pr (dark); source: E. coli BL21(DE3), co-expressed with HO1 and HY2, purified (Ni-NTA, anti-FLAG resin, Source Q); not shown: 3× Flag ([residues removed]), N-terminal, kept
B3: phyB^Y276H, full length (receptor, Arabidopsis, UniProt P14713 1-1172, looked up)
chain: MVSGVGGSGGGRGGGRGGEEEPSSSHTPNNRRGGEQAQSSGTKSLRPRSNTESMSKAIQQYTVDARLHAVFEQSGESGKSFDYSQSLKTTTYGSSVPEQQITAYLSRIQRGGYIQPFGCMIAVDESSFRIIGYSENAREMLGIMPQSVPTLEKPEILAMGTDVRSLFTSSSSILLERAFVAREITLLNPVWIHSKNTGKPFYAILHRIDVGVVIDLEPARTEDPALSIAGAVQSQKLAVRAISQLQALPGGDIKLLCDTVVESVRDLTGYDRVMVHKFHEDEHGEVVAESKRDDLEPYIGLHYPATDIPQASRFLFKQNRVRMIVDCNATPVLVVQDDRLTQSMCLVGSTLRAPHGCHSQYMANMGSIASLAMAVIINGNEDDGSNVASGRSSMRLWGLVVCHHTSSRCIPFPLRYACEFLMQAFGLQLNMELQLALQMSEKRVLRTQTLLCDMLLRDSPAGIVTQSPSIMDLVKCDGAAFLYHGKYYPLGVAPSEVQIKDVVEWLLANHADSTGLSTDSLGDAGYPGAAALGDAVCGMAVAYITKRDFLFWFRSHTAKEIKWGGAKHHPEDKDDGQRMHPRSSFQAFLEVVKSRSQPWETAEMDAIHSLQLILRDSFKESEAAMNSKVVDGVVQPCRDMAGEQGIDELGAVAREMVRLIETATVPIFAVDAGGCINGWNAKIAELTGLSVEEAMGKSLVSDLIYKENEATVNKLLSRALRGDEEKNVEVKLKTFSPELQGKAVFVVVNACSSKDYLNNIVGVCFVGQDVTSQKIVMDKFINIQGDYKAIVHSPNPLIPPIFAADENTCCLEWNMAMEKLTGWSRSEVIGKMIVGEVFGSCCMLKGPDALTKFMIVLHNAIGGQDTDKFPFPFFDRNGKFVQALLTANKRVSLEGKVIGAFCFLQIPSPELQQALAVQRRQDTECFTKAKELAYICQVIKNPLSGMRFANSLLEATDLNEDQKQLLETSVSCEKQISRIVGDMDLESIEDGSFVLKREEFFLGSVINAIVSQAMFLLRDRGLQLIRDIPEEIKSIEVFGDQIRIQQLLAEFLLSIIRYAPSQEWVEIHLSQLSKQMADGFAAIRTEFRMACPGEGLPPELVRDMFHSSRWTSPEGLGLSVCRKILKLMNGEVQYIRESERSYFLIILELPVPRKRPLSTASGSGDMMLMMPY
modifications: PΦB chromophore covalently bound
notes: Arabidopsis phytochrome B, residues 1-1172, At2g18790, with Y276H; also called constitutively active mutant phyB^Y276H; source: E. coli BL21(DE3), co-expressed with HO1 and HY2, purified (Ni-NTA, anti-FLAG resin, Source Q); not shown: 3× Flag ([residues removed]), N-terminal, kept

Data set [1] concerns the molecule itself. The data set is described as follows: cryo-EM structure; phyB and PIF6β mixed ~1:1.5, on ice under red light (665 nm, 800 μmol m^-2 s^-1), SEC in 25 mM HEPES pH 7.8, 250 mM KCl, 10 mM DTT, 1 mM EDTA; irradiated with red light 20 min before freezing.
The target of data set [2] is B3. The data set is described as follows: pull-down; StrepII-tagged PIF6 forms or PIFNs held on Strep-Tactin Sepharose, 3× Flag-phyB or phyB^Y276H in the mixture; in the dark, 4 °C, 2 h; buffer E (100 mM Tris-HCl pH 8.0, 150 mM NaCl, 1 mM EDTA); SDS-PAGE with Coomassie and zinc-induced fluorescence. Particulars: both partners purified.
For data set [3], the target named is B1. Put plainly: pull-down; StrepII-tagged PIF6 forms or PIFNs held on Strep-Tactin Sepharose, 3× Flag-phyB in the mixture; red light (665 nm, 800 μmol m^-2 s^-1), 4 °C, 2 h; buffer E (100 mM Tris-HCl pH 8.0, 150 mM NaCl, 1 mM EDTA); eluted with D-desthiobiotin; SDS-PAGE with Coomassie and zinc-induced fluorescence. Particulars: both partners purified.
Data set [4] deals with the molecule itself. Put plainly: cryo-EM structure; phyB^Y276H or phyBN^Y276H mixed with PIF6β ~1:1.5; full-length complex prepared in the dark; SEC on Superose 6 Increase before freezing.
The target in data set [5] is PIF6β (1‒182) (Arabidopsis). The data set is described as above.

Regarding B1, the binding result in data set [1] was “binds”.

B2: PIF6αΔC (1‒247) (domain or fragment, Arabidopsis, UniProt Q8L5W7 1-247, looked up)
chain: MMFLPTDYCCRLSDQEYMELVFENGQILAKGQRSNVSLHNQRTKSIMDLYEAEYNEDFMKSIIHGGGGAITNLGDTQVVPQSHVAAAHETNMLESNKHVDDSETLKASSSKRMMVDYHNRKKIKFIPPDEQSVVADRSFKLGFDTSSVGFTEDSEGSMYLSSSLDDESDDARPQVPARTRKALVKRKRNAEAYNSPERNQRNDINKKMRTLQNLLPNSHKDDNESMLDEAINYMTNLQLQVQMMTMG
notes: Arabidopsis PIF6α, residues 1-247; also called PIF6ΔC; C-terminus-truncated PIF6α; source: E. coli BL21(DE3), purified (Ni-NTA, Strep-Tactin, Source Q); not shown: StrepII, C-terminal, kept
On to B2, for which the binding result in data set [2] and in data set [3] was “binds” in each case.
For the molecule B3, in data set [4], the binding result was “binds”. Further, the stoichiometry N (phyB per PIF6β) in data set [5] was 2.
